The Kd is the concentration at which binding is half-saturated. For orientation: stoichiometry N means the number of molecules, sites or subunits per partner or assembly.

This is an account of results in article PMC4155161 (Structure(London, England:1993), 2014).

In series [1] the target is p53 (Danio rerio) (UniProt P79734). The note with it: cited from earlier work.
Series [2] deals with the molecule itself. Put plainly: crystal structure; DRp53(302-346), two crystal forms (C222(1), 1.97 A; P2(1), 2.2 A), grown at 20 C with zinc acetate and polyethylene glycol.
Series [3] concerns the molecule itself. Nature of the series: SEC-MALS; DRp53(302-345) at 185, 46 and 9 uM (monomer concentration at the peak); room temperature, 50 mM Tris pH 7.5, 150 mM NaCl, Superdex 75 10/300. (In gel filtration, larger molecules generally elute earlier.)
Series [4] concerns the molecule itself. Put plainly: SEC-MALS; DRp53(302-331) at high concentrations (170 and 870 uM monomer at the peak); room temperature, 50 mM Tris pH 7.5, 150 mM NaCl, Superdex 75 10/300.

In the case of p53 (from UniProt P79734), in series [1], the Kd was 3.6 nM.

B1: zebrafish p53 tetramerization domain, DRp53(302-346) (domain or fragment, zebrafish (Danio rerio), UniProt G1K2L5 302-346, looked up)
chain: EEIFTLQVRGRERYEILKKLNDSLELSDVVPASDAEKYRQKFMTK
notes: numbering on UniProt/TrEMBL entry G1K2L5 (length of 374 amino acids); Crystallised construct; same vector and cleavage here; also called full-length tetramerization domain; long variant; not shown: His6, N-terminal, cleaved; lipoyl domain of B. stearothermophilus dihydrolipoamide acetyltransferase, N-terminal, cleaved
As to B1, in series [2], the binding result is “binds”.

B2: zebrafish p53 tetramerization domain, residues 302-345, DRp53(302-345) (domain or fragment, zebrafish (Danio rerio), UniProt G1K2L5 302-345, looked up)
chain: EEIFTLQVRGRERYEILKKLNDSLELSDVVPASDAEKYRQKFMT
notes: numbering on UniProt/TrEMBL entry G1K2L5 (length of 374 amino acids); Used for SEC-MALS; the two may be the same construct; not shown: His6, N-terminal, cleaved; lipoyl domain of B. stearothermophilus dihydrolipoamide acetyltransferase, N-terminal, cleaved; GGS, N-terminal, kept
For B2, in series [3], the “stoichiometry N” value was 4.

B3: zebrafish p53 tetramerization domain deletion variant lacking helix H2, DRp53(302-331) (domain or fragment, zebrafish (Danio rerio), UniProt G1K2L5 302-331, looked up)
chain: EEIFTLQVRGRERYEILKKLNDSLELSDVV
notes: numbering on UniProt/TrEMBL entry G1K2L5 (length of 374 amino acids); same vector and cleavage here; also called truncated domain; short variant; not shown: His6, N-terminal, cleaved; lipoyl domain of B. stearothermophilus dihydrolipoamide acetyltransferase, N-terminal, cleaved
With B3, the “stoichiometry N” value in series [4] was 4.
